The series addresses RUNX1 (Homo sapiens, UniProt Q01196). In words: gcPBM; 2 nM RUNX1. Conditions: tags: N-terminal GST (pDEST15), kept (PMC6008103); label: surface-attached array probe.

RUNX1, sequence (Q01196 whole entry): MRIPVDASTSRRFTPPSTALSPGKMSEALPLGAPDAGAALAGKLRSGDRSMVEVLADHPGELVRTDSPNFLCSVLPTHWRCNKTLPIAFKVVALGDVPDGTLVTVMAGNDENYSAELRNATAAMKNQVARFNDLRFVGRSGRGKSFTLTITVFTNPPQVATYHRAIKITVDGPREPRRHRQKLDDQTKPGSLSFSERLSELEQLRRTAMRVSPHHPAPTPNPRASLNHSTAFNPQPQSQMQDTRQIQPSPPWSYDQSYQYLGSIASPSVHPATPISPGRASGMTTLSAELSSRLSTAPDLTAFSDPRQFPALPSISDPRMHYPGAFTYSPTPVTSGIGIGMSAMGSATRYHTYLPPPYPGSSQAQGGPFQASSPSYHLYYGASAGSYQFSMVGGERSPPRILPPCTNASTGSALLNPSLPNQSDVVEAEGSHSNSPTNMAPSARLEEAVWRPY

B1: Table S3 B row 2632 (dsDNA)
DNA 1: TCTGTTTTGTGGGTTCCCTGCCCCCCTTCGGCCTTT
DNA 2: AAAGGCCGAAGGGGGGCAGGGAACCCACAAAACAGA
Regarding B1, the binding signal is 2250 PBM fluorescence, median of replicate spots.

B2: Table S3 B row 1934 (dsDNA)
DNA 1: TCCTCCCCCAACCGCACCCTCAGCTTCATGTTTCAG
DNA 2: CTGAAACATGAAGCTGAGGGTGCGGTTGGGGGAGGA
In the case of B2, the binding signal was 3950 PBM fluorescence, median of replicate spots.

B3: Table S3 B row 2805 (dsDNA)
DNA 1: AGCTTAATGCGGTTGGAGAACACCCTGTCTTATTGA
DNA 2: TCAATAAGACAGGGTGTTCTCCAACCGCATTAAGCT
B3: the binding signal is 1930 PBM fluorescence, median of replicate spots.

B4: Table S3 B row 2775 (dsDNA)
DNA 1: CCTGTTTCGTGCCATCTGCCCTTCCTTTGTGGTCAA
DNA 2: TTGACCACAAAGGAAGGGCAGATGGCACGAAACAGG
Consider B4, for which the binding signal is 2610 PBM fluorescence, median of replicate spots.

B5: Table S3 B row 1984 (dsDNA)
DNA 1: TAAAACCAAACCACAGATGACACATTGCCTTTCCAC
DNA 2: GTGGAAAGGCAATGTGTCATCTGTGGTTTGGTTTTA
Take B5: the binding signal is 2350 PBM fluorescence, median of replicate spots.

B6: Table S3 B row 1562 (dsDNA)
DNA 1: CCACACCCACAAGGCCAGCCTCAATTCCTCACTCCT
DNA 2: AGGAGTGAGGAATTGAGGCTGGCCTTGTGGGTGTGG
Take B6: the binding signal is 1900 PBM fluorescence, median of replicate spots.

B7: Table S3 B row 3800 (dsDNA)
DNA 1: GACCCAGATACCACACCTACCCTGCTGCCTTTTCTA
DNA 2: TAGAAAAGGCAGCAGGGTAGGTGTGGTATCTGGGTC
Consider B7, for which the binding signal is 1960 PBM fluorescence, median of replicate spots.

B8: Table S3 B row 2767 (dsDNA)
DNA 1: CTTGCGGTCCCATCTTGCTTTTTTCTTGCGCTTTCC
DNA 2: GGAAAGCGCAAGAAAAAAGCAAGATGGGACCGCAAG
For the molecule B8, the binding signal was 2370 PBM fluorescence, median of replicate spots.

B9: Table S3 B row 2476 (dsDNA)
DNA 1: CAGGTCACCGCAGTCCCCACCACTGCCTGTTATTGT
DNA 2: ACAATAACAGGCAGTGGTGGGGACTGCGGTGACCTG
On to B9, for which the binding signal is 1870 PBM fluorescence, median of replicate spots.

B10: Table S3 B row 2151 (dsDNA)
DNA 1: CTAAGGCTGTGGTTTGTACCCTAGCAGCAAAGGCAG
DNA 2: CTGCCTTTGCTGCTAGGGTACAAACCACAGCCTTAG
As to B10, the binding signal was 2080 PBM fluorescence, median of replicate spots.

B11: Table S3 B row 1521 (dsDNA)
DNA 1: CTCCGCCTTTCACCTCCTAGTAACCGCCCTCCCTTG
DNA 2: CAAGGGAGGGCGGTTACTAGGAGGTGAAAGGCGGAG
For B11, the binding signal was 2240 PBM fluorescence, median of replicate spots.

B12: Table S3 B row 736 (dsDNA)
DNA 1: CTCTGAACCGCATGATCTCTAAGACCACTTGCTGTT
DNA 2: AACAGCAAGTGGTCTTAGAGATCATGCGGTTCAGAG
On to B12, for which the binding signal is 1820 PBM fluorescence, median of replicate spots.

B13: Table S3 B row 708 (dsDNA)
DNA 1: CTCCTGCGGTTGCCAGGCAACCGGCCCCGGGAGTTG
DNA 2: CAACTCCCGGGGCCGGTTGCCTGGCAACCGCAGGAG
With B13, the binding signal is 3720 PBM fluorescence, median of replicate spots.

B14: Table S3 B row 2668 (dsDNA)
DNA 1: TACAGTCTCTGTGGTTTACTGAGAGGAGGTGGTTCT
DNA 2: AGAACCACCTCCTCTCAGTAAACCACAGAGACTGTA
On to B14, for which the binding signal is 2160 PBM fluorescence, median of replicate spots.

B15: Table S3 B row 1841 (dsDNA)
DNA 1: CTGCCCATCGCGGTTAACTTTTGCGCCTCCTTAAAG
DNA 2: CTTTAAGGAGGCGCAAAAGTTAACCGCGATGGGCAG
Consider B15, for which the binding signal is 3570 PBM fluorescence, median of replicate spots.

B16: Table S3 B row 3999 (dsDNA)
DNA 1: ATGGAAATGTGGTTAAGAACTCCCTCTTTTACTAGA
DNA 2: TCTAGTAAAAGAGGGAGTTCTTAACCACATTTCCAT
Consider B16, for which the binding signal was 2760 PBM fluorescence, median of replicate spots.

B17: Table S3 B row 1484 (dsDNA)
DNA 1: GTGAAGACCGCAAGTTGGGGCAGATGGCTCCCGACT
DNA 2: AGTCGGGAGCCATCTGCCCCAACTTGCGGTCTTCAC
As to B17, the binding signal is 3440 PBM fluorescence, median of replicate spots.

B18: Table S3 B row 878 (dsDNA)
DNA 1: CCCTTTGTGGTCACAAAAACATGTCCTAGTTGAGAT
DNA 2: ATCTCAACTAGGACATGTTTTTGTGACCACAAAGGG
Turning to B18, the binding signal was 3830 PBM fluorescence, median of replicate spots.

B19: Table S3 B row 1822 (dsDNA)
DNA 1: TCCTATTTTTACCGCAGTTGCACAGGCAATGAGGCG
DNA 2: CGCCTCATTGCCTGTGCAACTGCGGTAAAAATAGGA
In the case of B19, the binding signal is 3180 PBM fluorescence, median of replicate spots.

B20: Table S3 B row 1676 (dsDNA)
DNA 1: GTAAAATGCGGTCGGGTAGAAACCTACTTTCGGTCC
DNA 2: GGACCGAAAGTAGGTTTCTACCCGACCGCATTTTAC
B20: the binding signal was 2480 PBM fluorescence, median of replicate spots.

B21: Table S3 B row 244 (dsDNA)
DNA 1: GGTCTTTTCTGTGGTTCTGTCACCTCCTTTGTAAGT
DNA 2: ACTTACAAAGGAGGTGACAGAACCACAGAAAAGACC
For the molecule B21, the binding signal was 2300 PBM fluorescence, median of replicate spots.

B22: Table S3 B row 3109 (dsDNA)
DNA 1: ACTCCACCTACCCACAAAACGCACTGCCTCAGAAGC
DNA 2: GCTTCTGAGGCAGTGCGTTTTGTGGGTAGGTGGAGT
As to B22, the binding signal was 2010 PBM fluorescence, median of replicate spots.

B23: Table S3 B row 1286 (dsDNA)
DNA 1: CCCAATTGCCTTTGCTCTGCTGTCTGCCAACCGCAA
DNA 2: TTGCGGTTGGCAGACAGCAGAGCAAAGGCAATTGGG
In the case of B23, the binding signal was 1860 PBM fluorescence, median of replicate spots.

B24: Table S3 B row 1118 (dsDNA)
DNA 1: CTCCCACCATCCACCGCAGCCACTTTCGCCCGTCCT
DNA 2: AGGACGGGCGAAAGTGGCTGCGGTGGATGGTGGGAG
For the molecule B24, the binding signal was 3290 PBM fluorescence, median of replicate spots.

B25: Table S3 B row 2615 (dsDNA)
DNA 1: ACCCCCCAACCACAAGGCCCGTTTGCTGCCTCCCCA
DNA 2: TGGGGAGGCAGCAAACGGGCCTTGTGGTTGGGGGGT
As for B25, the binding signal was 2690 PBM fluorescence, median of replicate spots.

B26: Table S3 B row 1266 (dsDNA)
DNA 1: AGAAAACCACATTCAATTCTCTTTACACAGGGTGTT
DNA 2: AACACCCTGTGTAAAGAGAATTGAATGTGGTTTTCT
As for B26, the binding signal is 3040 PBM fluorescence, median of replicate spots.

B27: Table S3 B row 1939 (dsDNA)
DNA 1: TTGGTTCTGTGGTTTCAGGTGTGAGTTCCAGTGTGC
DNA 2: GCACACTGGAACTCACACCTGAAACCACAGAACCAA
As to B27, the binding signal was 2910 PBM fluorescence, median of replicate spots.

B28: Table S3 B row 808 (dsDNA)
DNA 1: TGTGTTAGTGGTTTTCTCTTACGGCAGGCAGTGGGC
DNA 2: GCCCACTGCCTGCCGTAAGAGAAAACCACTAACACA
On to B28, for which the binding signal is 2040 PBM fluorescence, median of replicate spots.

B29: Table S3 B row 2568 (dsDNA)
DNA 1: GTCGCCTGCGGTGACTCAGCTCTTACGGTCACCGCC
DNA 2: GGCGGTGACCGTAAGAGCTGAGTCACCGCAGGCGAC
For B29, the binding signal was 1800 PBM fluorescence, median of replicate spots.

B30: Table S3 B row 991 (dsDNA)
DNA 1: TCCCTTACCTTCATGCTGCCACCAAACCACCAAACC
DNA 2: GGTTTGGTGGTTTGGTGGCAGCATGAAGGTAAGGGA
Turning to B30, the binding signal is 2540 PBM fluorescence, median of replicate spots.

The values above are taken from PMC10681739, “High-throughput data and modeling reveal insights into the mechanisms of cooperative DNA-binding by transcription factor proteins”.
